Where no end group is shown, it is not given here.
Legend:
VWF = VWF (Homo sapiens, UniProt P04275); assay: VWF binding in the presence or absence of ristocetin (FIG. 7)
platelet GPIbα = biological target: T1, platelet GPIbα (Homo sapiens, UniProt P07359); assay: Platelet adhesion to collagen III under constant shear, whole blood perfusion with OS-1; assay type: cell-based; conditions: for Numbers of adherent platelets: 20 µg ml^-1 abciximab; for Platelet adhesion (relative, fluorescence intensity): collagen III, 1,500 s^-1
T1 construct: endogenous in cells; host or cells: platelets in citrated whole blood
Description: (§1) In-house designed PDMS microfluidic chips (FIG. 1A) contained channels of 52 µm height with a footprint of 300 µm x 46 mm (used in FIG. 1) or 300 µm x 17 mm. Selected channels incorporated a semi-circular stenotic section of various lengths (600 µm, 1000 µm or 2000 µm diameter), creating 80% lumen reduction. Chips were manufactured as previously reported (Westein et al. Proceedings of the National Academy of Sciences of the United States of America. 2013 Jan 22;110(4):1357-62). The produced PDMS chips were sealed with cover slips by hydrophobic interaction and coated with collagen by perfusion of collagen solution followed by static incubation at RT for at least 1 hr. Channels were rinsed with PBS and blocked with 2% BSA. Wall shear rates of the input flow for these microchannels were approximated from volumetric flow rates by using the equation, γ = 6Q/wh2. Herein, γ is the wall shear rate (s^-1), Q the volumetric flow rate (mls^-1), w the channel with (cm) and h the channel height (cm).
(§2) Citrated whole blood was incubated with DiOC6 (0.5 µg ml^-1) (Sigma-Aldrich Co, St. Louis, MO, USA) and drawn through microfluidic channels by a programmable syringe pump (Legato 130, KD Scientific, USA). Time-lapse z-stack images of platelet deposition were captured in multiple track, resonant scanning mode, using a Nikon A1R confocal microscope system. Platelet deposition was recorded over time (2 frames per minute) for up to 20 minutes and quantified in ImageJ using a Z-projection of the acquired signal.
For experiments measuring rolling velocities, anti αllbβ3 antibody (abciximab; 20 µg ml^-1)-treated whole blood containing 0.5 µg ml^-1 DiOC6 was drawn over a collagen type III-coated surface. Where indicated, blood was incubated with 30 µM aspirin (Sigma Aldrich, USA) and 300 µM 2-MeSAMP (Sigma-Aldrich Co, St. Louis, MO, USA) prior to blood perfusion. 10 second video clips of rolling platelets were recorded in the green fluorescent channel using an Olympus IX81 microscope system. Platelet rolling velocities were calculated using Diatrack v3.04 large scale particle tracking software (Vallotton et al. Microsc Microanal. 2013 Apr;19(2):451-60).

[1] = tested on: thrombus formation / platelet deposition; assay: Thrombus formation on collagen type I in stenosis channels (SRG versus constant shear); assay type: cell-based, human; conditions: 15 minutes of blood flow; for Platelet deposition: 0.1 µM OS-1
Description: as §1, §2

Row | Substance | Mechanism of VWF binding (dependence on conformation) (VWF) | Numbers of adherent platelets (platelet GPIbα; 3 µM OS-1, constant shear 2,000 s^-1) [platelets per field] | Numbers of adherent platelets (platelet GPIbα; 3 µM OS-1, constant shear above 500 s^-1) [platelets per field] | Platelet adhesion (relative, fluorescence intensity) (platelet GPIbα; 3 µM OS-1) | Platelet adhesion (relative, fluorescence intensity) (platelet GPIbα; increasing concentrations of OS-1) | Platelet deposition ([1]; constant shear) | Platelet deposition ([1]; shear gradient conditions) | Thrombus formation ([1]; 2000 s^-1 constant shear) | Thrombus formation ([1]; SRGs (187-1,500 s^-1)) | Thrombus formation ([1]; SRGs (300-2,000 s^-1))
1 | Cablivi: commercially available antibody (Cablivi®, Sanofi) binding VWF [reference compound] | conformation independent | – | – | – | – | – | – | – | – | –
2 | OS-1: cyclic peptide, allosteric inhibitor of GPlbα/VWF interactions with sequence CTERMALHNLC, obtained from Auspep (also: cyclic peptide, ring not described) [reference compound] | – | 11±4 | 53±4 | completely abolished | concentration dependently reduced | inhibited | inhibited | reduced thrombus formation | inhibited thrombus formation | inhibited thrombus formation
